Experiment: yeast display, Sf9 membrane polyspecificity reagent, FACS + sequencing; frameworks hold sequencing errors
How it was run: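 A nanobody's polyreactivity label depends on the gate it was sorted from. Yeast display cells were stained with 10% biotinylated, detergent-solubilized Sf9 membrane reagent for 1 hour at 4 °C, enriched on streptavidin microbeads and sorted by FACS. The low and high (top ~1%) gates were set on anti-HA fluorescence for expression and streptavidin fluorescence for reagent binding.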

| Sequence | polyreactivity (PSR sort gate) |
| --- | --- |
| QVQLVESGGGLVQAGGSIRLSCAASGSTFDYYAMGWYRQAPGKDRELVAAITTSGSSTFYADSVKGRFTIARDNAKNTVYVQMNSLKPEDTADYYCAAVFRWARQRWLDYWGQGTQVTVSS | high polyreactivity |
| QVQLVESGGGLVQAGGSLRLSCAASGRTFQGYAMGWYRQAPGKERELVAAISYRGGSTYYADSVKGRFTISRDHAKPTVFLPMNSLKPEDTAVYYCAARWNRGRYDYWGQGTQVTVSS | high polyreactivity |
| QVLLQESGGGLVQAGGSLRLGCAASGTISPAYYMGRYHQAPGKEREFVAAITYGTNTYYADSEKGRFTISRDNAKNTVYLQMNSLKPEDTAVYYCSATAGYNGAHDYWGQVTQVTVSS | low polyreactivity |
| QVQLVESGGGLVQAGGSLRLSCAASGSTFYPNAMGWYRQAPGKERELVAAISWSGGRTYYADSVKGRFTISRDNAKNTVYLQMNSLKPEDTAVYYCNRYHRTSWRAKYDYWGQGTQVTVSS | high polyreactivity |
| QVQLVESGGGLVQAGGSLRLSCAASGRTFSGYAMGWDRQAPGKERELDAAISRGGSTNYADSVKGRFTISRDNAKNTVYLQMNSLKPEDTAVYYCAVRVYYGWAQPGYYYWGQGTQVTVSS | high polyreactivity |
| QVQLVESGGGLVQAGGSLRLSCAASGFTFKFNAMGWYRQAPGKERELVAAISYSGGSTYYADSVKGRFTISRDNAKNTVYLQMNSLKPEDTAVYYCAARAYWYGASYYYWGQGPQVTVSS | high polyreactivity |
| QVQLVETGGGLLQAGGSLRLSCAASGFTFDFYAMGWYRQAPGKERELVAAINWSGSSTYYADSVKGRFTISRDNAKNTVYLQMNSLKPEDTAVYYCAAQVYYTLFPDVYTMYYWGQGTQVTVSS | high polyreactivity |
| QVQLVESGGGLVQAGGSLRLSCAASGFIFYRYAMGRYRQAPGKERELVAAISWYGGTTYYADSVKGRFTISRDNAKNTVYLQMNSLKPEDTAVYYCAASRLRTEYYWGQGTQVTVSS | high polyreactivity |
| QVQLVESGGGLVQAGGSLRLSCAASGSIFSRYAMGWYRQAPGKERELVAGISRGSSTYYADSVKGRFTISRDNAKNTVYLQMNSLKPEDTAVYYCARSGGSGGYYYWGQGTQVTVSS | low polyreactivity |
| QVQLVESGGGLVQAGGSLRLSCASSGYTFVYYAMGWYRQAPGKERELVAAINVSDGNTFYADSVKGRFTISRDNAKNTVYLQMNSLIPEDTAVYYCAADYYPYPPTSEYGYWGQGTQVTVSS | low polyreactivity |
| QVQLVESGGGLVQAGGSLRLSCAASGITLVRYAMGWYRQAPGKERELVASITSGASTNYADSVKGRFTISRDNAKNTVYLQMNSLKPEDTAVYYCAAGPPSGGWWGGWYDYWGQGTQVTVSS | high polyreactivity |
| QVQLVESGGGLVQAGGSLRLSCAASGSTFVYYAMGWYRQAPGKERELGAAITASGGGTYYADSVKGRFTISRDNAKNTVYLQMNSLKPEDTAVYYCNRGYDYWGQGTQVTVSS | low polyreactivity |
| QVQLVESGGGLVQAGGSLRLSCAASGRTFYQYAMGWYRPAPGKERELVAAITTSGGSTYYADSVKGRFTNSRDNAKNTVYLQMNSLKPEDTAVYYCAAPYTGYRERGSYKSDYWGQGTQVTESS | low polyreactivity |
| QVQLVESGGGLVQAGGSLRLSCAASGRIFDDNAMGWYRQAPGKERELVADINNGTSTNYADSVKGRFTISRDNAKNTVYLQMNSLKPEDTAVYYCAADDYIYYRILGDSFVYKAYGYWGQGTQVTVSS | low polyreactivity |
| QVQHVESGGGLVQAGGSLRLSCAASGRIFWDNASGWYRQAPGKVSELHAAISDSVVITYFADSVKGRFTISRDTAKYTVYLQMNSLKPEDTAFYYCAAHKRCTVYLSSFWMDYWGQGNQVTVSS | low polyreactivity |
| QDQLVESVGGLVQAGVSLRLSSASSGRTFWAYAMGWYRQAHGKERELVAAISRNGGSTYYADSVKGRFTISRDHAKNTVYLQMNSLKPEDTAVYYCAAESRYYYELGYWGQGTQVTVSS | high polyreactivity |
| QVQLVESGGGLVQAGGSLRLSCAASGRIFKNYAKGWYRQAPGKERELVAAISWSGGRTYYSDSVKGRFTISRDNAKNTVYLQMNSLKPEYTAVYYCAARFRRTRVTYYYWGQGTQVTVSS | high polyreactivity |
| QVQLVESGGGLVQAGGSLRLSCAASGRTFYTYAMGWYRPAPGKERELVASISSGGNTNYADSVKGRFTISRDNAKNTVYLQMNSLKPEDTAVYYCAASYLKRRGYWGQGTQVTVSS | low polyreactivity |
| QVQLVESGGGLVQAGGSLRLSCAASGRTFPYYAMGWYRQAPGKERELVAAITRGVRTHYADSVKGRFTISRDNAKYTVYLQMNSLKPEDTAVYYCAREDWGSYSDMDSWGQGTQVTVSS | low polyreactivity |
| QVQLVESGGGLVQAGGSLRLSCAASGSIFNHYAMGWYRQAPGKERELVAVIPSGGSTNYADSVKGRFTISRDNAKNTVYLQMNSLKPEDTAVYYCAADTYLSAVDYYGWAHDYWGQGTQVTVSS | low polyreactivity |
| QVQLVESGGGLVQAGGSLRLSCAASGRIFADYAMGWYRQAPGKEREMVADIRQSGGRTYYADSVKGRFTISRDNAKNTVYLQMNSLKPEDTAVYYCATEYGSLGDYSGKYDYWGQGTQVTVSS | low polyreactivity |
| QVQLQESAGGLVQAGGSLRLRFSASAYNSCDASMGWYSQAPGKERELSASISKGSSTNYADSVKGRFTIRDNAKNSVYLQMNSLKPEVTAVCYCAVTYPYWGDYTYWGQGTQVSVSS | low polyreactivity |

| Sequence | polyreactivity (PSR sort gate) |
| --- | --- |
| QVQLVESGGGLVHAGGSLRLSCAASGFTFGNAMGWYRQAPGKERELVAAITVNGGTTNYADSVKGRFTISRDNAKNTVYLQMNSLKPEDTAVYSCNVDTSYGPAGDYWGQGTQVTVSS | low polyreactivity |
| QVQLVESGGGLVQAGGSLRLSCAPSGSTFSHNAMGWYRQAPGKEREFVAAISWSGGGTYADSVKGRFTISRDYAKNTVYLQMNSLKPEDTAVYYCNKVSYRSSSSSWFDYWGQGTQVTVSS | low polyreactivity |
| QVQLVESGGGLVQAGGSLRLSCAASGSIFGPYVMGWYRQAPGKEREFVAAIRGSGGSTYYADSVKGRFTISRDNAKNTVYLQMNSLKPEDTAVYYCNARLKYTLYYYWGQGTQVTVSS | high polyreactivity |
| QVQLVESGGGLVQAGGSLRISCAASGRIFYYNAIGWYRQAPGKERELVATITGSGGSSYYADSVKGRFTISRDNAKNTVYLQMKTLKPEDSAVYYCIASRWYYDFYNLDYWGQGTQVTVSS | low polyreactivity |
| QVQLVESGGGLVQAGGSLRLSCAASGRIFVFYAMGWYRQAPGKERELVAAISKSVGPTYYADSVKGRFTISRDNAKNTVYLQMNSLKPEDTAVYYCASDVDRFFTYKYDYWGQGTQVTVSS | low polyreactivity |
| QVQLVESGGGLVQAGGSLRLSCAASGITFRHYDMGWYRQAPGKERELVAAITSRGGSTYYADSVKGRFTISRDNAKNTVYLQMNSLKPQDTAVYYCNKRLYYQRWPAAAREYWGQGTQVTVSS | high polyreactivity |
| QVQLVESGGGLVQAGGSLRLSCAASGLIFRVNAMGWYRQAPGKERELVASISVSGGSTYYADSVKGRFTISRDNAKNTVYLQMNSLKPEDTAVYYCAASQYHKGYLFSYPYEYDYWGQGTQVTVSS | low polyreactivity |
| QVQLVESGGGLAQAGGSLRLTCAASGSTFQIYAMGWYRPAPGKERELVAAITSSSSTNYADSVKGRFTISRDNAKNTVYLQMNRLKPEDTAVYYCAADVSWRSNWYDYWGLGTQVTVSS | low polyreactivity |
| QVQIVESGGGLVQAGGSLRLSCAASGRTLSYYAMGWYRQAPGKEREFVAAITGSGGSTYYADSVKGRFTISRDNAKNYVYFQMNSLKPEDTAVYYCNAKGLGVFTVEYYYWGQGTQVTVSS | low polyreactivity |
| HVQLVESGGGLVQAGASLRLSCAASGRIFGRNAMGWYRQAPGKERELVAAISGNGGSTYYADSVKGRFTISRDIAKNTVYLQMNSLKPEDTAGYYCATKYFSRMDYWGQGTQVTVSS | high polyreactivity |
| QVQLVESGGGLVQAGGSLRLSCAASGSIFWGYAMGWYRQAPGKERELVASIGGDSTNYADSVKGRFTISRDNAKNTVYIQMNSLKQEYTPVYYCAARYRTDYYPEYEYWGQGTEVTVSS | low polyreactivity |
| QVQLVESGGGLVQAGGSLRLSCAASGRTFHRYAMGWYRQAPGKERELVAAITSSGGSTNYADSVKGRFTISRDYAKNTVYLQMNSLKPEDTAVYYCATDRYRYTSHPWSRGFDYWGHGTQVTVSS | low polyreactivity |
| QVQLVESGGGLVQAGGSLRLRCAASGGNFDNYAMGWYRQAPGKERELVAAISRSGSSTFYADSVNGRFTISRDNAKNTVYLQMNSLKPEDTAVYYCSARYYYFAVYYGYIFEYDYWGQGTQLTVSS | low polyreactivity |
| QVQLVESGGGLVQAGGSLRLSCAASGSTFPAYAMGWYRQAPGKERELVATITYTGGSTYYADSVKGRFTISRDNAKNTVYLQMNSLKPEDTAVYYCAADRLVQEDEFDYWGQGTQVTVSS | low polyreactivity |
| QVQLVESGGGLVQAGGSLRLSCAATGIIFSWYAMGWYRQAPVKERELVATISSGAHTYYADSVKGRFTISRDNAKNTVYLQMNRLKPEDTAVYYCGAANEFGVVWAQFDYWGQGPQVTVSS | low polyreactivity |
| QVKLVESWRGLVPAGVSLRLSCAASVNILDYYAMGWYRQAPGNERELVASITSGGGTYYADSVKGRFTISRDNAKNTVYLQMNSLKPEDTAVYYCNAGPKRTYSPPWRVRYYDWGQGTQVTVSS | high polyreactivity |
| QVQLVESGGGLVQAGVSLRLSCAASGLIFVFYAMGWYRQAPGKERELVAAISRSGTSTYADSVKGRFTISRDNAKNTVYLQMNSLKPADTAVYYCNAYRYYSPYGYWGQGTQVTVSS | low polyreactivity |
| QFQLVESGGGLVQAGGSLRLSCAASGFTFDDYDMGWYRQAPGKERELVAAISWSGGSTYYADSVKGRFTISRDNSKNTVYLQMNSLKPEDTAVYYCAAERSYGGFDYWGQGTQVSVSS | low polyreactivity |
| QVQLVESGGGLVQAGGSLRLSCGASGRIFYSNAMGWYRQAPGTERELVAAITGSGGRTHYADSVKGRFTISRDNAKNTVYLQMNSLKPEDTAVYYCAKDGYFPEFDYWGQGTQVTVSS | high polyreactivity |
| QVQLVESGGGLVKAGGSLSLSCAASGFIFVNNVMGWYRQAPGKERELVAAISRRGGSTYYADSVKGRFTISRDNAKNTVYLQMNSLKPEDTAVYYCARRGPDFSWKYDYWGQGTQVTVSS | high polyreactivity |
| QVQLVESGGGLVQAGGSLRLSCAASGITSTYYAMGWYRQAPGKERELVAAISVSGGSTYYADSVKGRFTISRDNAKNTVYLQMNSLKPEDTAVYYCTADSYHTYYYWYDYWGQGTQVTVSS | low polyreactivity |

Source: the nanobody polyreactivity screen of Harvey et al. (2022)
